59 molecules from paper PMC9352680, “A comprehensive thermodynamic model for RNA binding by the Saccharomyces cerevisiae Pumilio protein PUF4” can be followed below.

By Kd is commonly meant a measure of binding affinity in units of concentration. The low end stands for higher affinity, the high end for lower affinity.

The data set has as its target T1, PUF4 RNA-binding domain (Saccharomyces cerevisiae, UniProt P25339 537-888).
T1 sequence: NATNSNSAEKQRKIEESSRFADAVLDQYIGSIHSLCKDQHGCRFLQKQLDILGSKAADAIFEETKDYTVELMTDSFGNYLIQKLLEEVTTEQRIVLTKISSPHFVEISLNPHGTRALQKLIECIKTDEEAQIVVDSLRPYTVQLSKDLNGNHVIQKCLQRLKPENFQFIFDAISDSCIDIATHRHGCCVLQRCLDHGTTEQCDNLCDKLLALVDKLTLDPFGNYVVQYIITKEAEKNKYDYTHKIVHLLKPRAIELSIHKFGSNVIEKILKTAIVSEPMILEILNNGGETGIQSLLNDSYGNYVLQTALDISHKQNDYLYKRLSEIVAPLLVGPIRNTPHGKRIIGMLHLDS
Nature of the data set: Mg; RNA-MaP; 20 mM Na-HEPES pH 7.4, 30 mM KOAc, 0.75 mM MgCl2, 0.1% Tween-20, 5% glycerol, 0.1 mg/mL BSA, 2 mM DTT; 25 C; 0.0125-409.6 nM protein. Particulars: tags: N-His6-TEV cleaved; C-SNAP kept, Cy3B-labelled; label: tethered on chip by stalled RNA polymerase.

The molecule UCUCUUUGUAACUCAUCUCUU (ssRNA) [Ic_S1_P4E.1_K4.1_C4.1_H4.1_A4.1_[T5A]_[A6C]_F4.1_[T8C]_T4.1] yielded an equilibrium dissociation constant (Kd) of 374 nM. For UCUCUUUGUACAAAUUCUCUU (ssRNA) [Ic_S1_P4E.1_K4.1_C4.1_H4.1_A4.1_[T5C]_[T7A]_F4.1_[T8A]_[A9T]_T4.1], the Kd came to 125 nM. UCUCUUUGUAACAUCUCUCUU (ssRNA) [Ic_S1_P4E.1_K4.1_C4.1_H4.1_A4.1_[T5A]_[A6C]_[T7A]_F4.1_[A9C]_T4.1] gave a Kd of 24.5 nM. The result for UCUCUUUGUACAAAAUCUCUU (ssRNA) [Ic_S1_P4E.1_K4.1_C4.1_H4.1_A4.1_[T5C]_[T7A]_F4.1_[T8A]_T4.1] reads 34.1 nM; that for UCUCUUUGUAACAAGUCUCUU (ssRNA) [Ic_S1_P4E.1_K4.1_C4.1_H4.1_A4.1_[T5A]_[A6C]_[T7A]_F4.1_[T8A]_[A9G]_T4.1], 1670 nM. The result for UCUCUUUGUAAGCCCUCUCUU (ssRNA) [Ic_S1_P4E.1_K4.1_C4.1_H4.1_A4.1_[T5A]_[A6G]_[T7C]_F4.1_[T8C]_[A9C]_T4.1] reads 2290 nM; that for UCUCUUUGUACAAUUUCUCUU (ssRNA) [Ic_S1_P4E.1_K4.1_C4.1_H4.1_A4.1_[T5C]_[T7A]_F4.1_[A9T]_T4.1], 11.2 nM; that for UCUCUUUGUAAGCACUCUCUU (ssRNA) [Ic_S1_P4E.1_K4.1_C4.1_H4.1_A4.1_[T5A]_[A6G]_[T7C]_F4.1_[T8A]_[A9C]_T4.1], 1880 nM. Next, UCUCUUUGUAACAACUCUCUU (ssRNA) [Ic_S1_P4E.1_K4.1_C4.1_H4.1_A4.1_[T5A]_[A6C]_[T7A]_F4.1_[T8A]_[A9C]_T4.1]: 580 nM; UCUCUUUGUAACUAGUCUCUU (ssRNA) [Ic_S1_P4E.1_K4.1_C4.1_H4.1_A4.1_[T5A]_[A6C]_F4.1_[T8A]_[A9G]_T4.1]: 104 nM. The molecule UCUCUUUGUAACUGCUCUCUU (ssRNA) [Ic_S1_P4E.1_K4.1_C4.1_H4.1_A4.1_[T5A]_[A6C]_F4.1_[T8G]_[A9C]_T4.1] returned a dissociation constant (Kd) of 704 nM.

Consider UCUCUUUGUAACCCCUCUCUU (ssRNA) [Ic_S1_P4E.1_K4.1_C4.1_H4.1_A4.1_[T5A]_[A6C]_[T7C]_F4.1_[T8C]_[A9C]_T4.1], for which the Kd is 1700 nM.

UCUCUUUGUAACUGAUCUCUU (ssRNA) [Ic_S1_P4E.1_K4.1_C4.1_H4.1_A4.1_[T5A]_[A6C]_F4.1_[T8G]_T4.1]: binding was put at a Kd of 674 nM. Next, UCUCUUUGUAAGCUAUCUCUU (ssRNA) [Ic_S1_P4E.1_K4.1_C4.1_H4.1_A4.1_[T5A]_[A6G]_[T7C]_F4.1_T4.1]: 26.5 nM; UCUCUUUGUAACAUGUCUCUU (ssRNA) [Ic_S1_P4E.1_K4.1_C4.1_H4.1_A4.1_[T5A]_[A6C]_[T7A]_F4.1_[A9G]_T4.1]: 12 nM; UCUCUUUGUACAUGCUCUCUU (ssRNA) [Ic_S1_P4E.1_K4.1_C4.1_H4.1_A4.1_[T5C]_F4.1_[T8G]_[A9C]_T4.1]: 28.6 nM. Next, UCUCUUUGUAACAGUUCUCUU (ssRNA) [Ic_S1_P4E.1_K4.1_C4.1_H4.1_A4.1_[T5A]_[A6C]_[T7A]_F4.1_[T8G]_[A9T]_T4.1]: 362 nM; UCUCUUUCUAUAUUUCUCUU (ssRNA) [Ib_S1_P3E.1_K3.1_C3.1_H3.1_[G2C]_A3.1_F3.1_[A8T]_T3.1]: > 2300 nM; UCUCUUUGUAACCGAUCUCUU (ssRNA) [Ic_S1_P4E.1_K4.1_C4.1_H4.1_A4.1_[T5A]_[A6C]_[T7C]_F4.1_[T8G]_T4.1]: > 2300 nM. The result for UCUCUUUGUAACGUUUCUCUU (ssRNA) [Ic_S1_P4E.1_K4.1_C4.1_H4.1_A4.1_[T5A]_[A6C]_[T7G]_F4.1_[A9T]_T4.1] reads 314 nM.

UCUCUUUGUAAGCUCUCUCUU (ssRNA) [Ic_S1_P4E.1_K4.1_C4.1_H4.1_A4.1_[T5A]_[A6G]_[T7C]_F4.1_[A9C]_T4.1] showed a dissociation constant Kd of 1840 nM. As to UCUCUUUGUACAACUUCUCUU (ssRNA) [Ic_S1_P4E.1_K4.1_C4.1_H4.1_A4.1_[T5C]_[T7A]_F4.1_[T8C]_[A9T]_T4.1], the Kd worked out at 33.9 nM.

For UCUCUUUGUAACGCCUCUCUU (ssRNA) [Ic_S1_P4E.1_K4.1_C4.1_H4.1_A4.1_[T5A]_[A6C]_[T7G]_F4.1_[T8C]_[A9C]_T4.1], binding was characterised by a dissociation constant (Kd) of 2000 nM. The result for UCUCUUUGUACAACAUCUCUU (ssRNA) [Ic_S1_P4E.1_K4.1_C4.1_H4.1_A4.1_[T5C]_[T7A]_F4.1_[T8C]_T4.1] reads 14.4 nM. The result for UCUCUUUGUAACCUCUCUCUU (ssRNA) [Ic_S1_P4E.1_K4.1_C4.1_H4.1_A4.1_[T5A]_[A6C]_[T7C]_F4.1_[A9C]_T4.1] reads 90 nM; that for UCUCUUUGUAACCAUUCUCUU (ssRNA) [Ic_S1_P4E.1_K4.1_C4.1_H4.1_A4.1_[T5A]_[A6C]_[T7C]_F4.1_[T8A]_[A9T]_T4.1], 548 nM; that for UCUCUUUGUAAGCUGUCUCUU (ssRNA) [Ic_S1_P4E.1_K4.1_C4.1_H4.1_A4.1_[T5A]_[A6G]_[T7C]_F4.1_[A9G]_T4.1], 544 nM. The result for UCUCUUUGUAACAGCUCUCUU (ssRNA) [Ic_S1_P4E.1_K4.1_C4.1_H4.1_A4.1_[T5A]_[A6C]_[T7A]_F4.1_[T8G]_[A9C]_T4.1] reads 1150 nM; that for UCUCUUUGUACAUGGUCUCUU (ssRNA) [Ic_S1_P4E.1_K4.1_C4.1_H4.1_A4.1_[T5C]_F4.1_[T8G]_[A9G]_T4.1], 59.6 nM; that for UCUCUUUGUAACAAAUCUCUU (ssRNA) [Ic_S1_P4E.1_K4.1_C4.1_H4.1_A4.1_[T5A]_[A6C]_[T7A]_F4.1_[T8A]_T4.1], 111 nM. Molecule UCUCUUUGUACAUCCUCUCUU (ssRNA) [Ic_S1_P4E.1_K4.1_C4.1_H4.1_A4.1_[T5C]_F4.1_[T8C]_[A9C]_T4.1] yielded a Kd of 29.5 nM.

As to UCUCUUUGUAACGAUUCUCUU (ssRNA) [Ic_S1_P4E.1_K4.1_C4.1_H4.1_A4.1_[T5A]_[A6C]_[T7G]_F4.1_[T8A]_[A9T]_T4.1], the Kd worked out at 884 nM.

In turn, UCUCUUUGUAACCAAUCUCUU (ssRNA) [Ic_S1_P4E.1_K4.1_C4.1_H4.1_A4.1_[T5A]_[A6C]_[T7C]_F4.1_[T8A]_T4.1] registered a Kd of 863 nM. The result for UCUCUUUGUAACUCGUCUCUU (ssRNA) [Ic_S1_P4E.1_K4.1_C4.1_H4.1_A4.1_[T5A]_[A6C]_F4.1_[T8C]_[A9G]_T4.1] reads 726 nM; that for UCUCUUUGUAACAUUUCUCUU (ssRNA) [Ic_S1_P4E.1_K4.1_C4.1_H4.1_A4.1_[T5A]_[A6C]_[T7A]_F4.1_[A9T]_T4.1], 13.9 nM.

UCUCUUUGUAAGCCAUCUCUU (ssRNA) [Ic_S1_P4E.1_K4.1_C4.1_H4.1_A4.1_[T5A]_[A6G]_[T7C]_F4.1_[T8C]_T4.1] gave an equilibrium dissociation constant (Kd) of 515 nM. Next, UCUCUUUGUAACUGGUCUCUU (ssRNA) [Ic_S1_P4E.1_K4.1_C4.1_H4.1_A4.1_[T5A]_[A6C]_F4.1_[T8G]_[A9G]_T4.1]: 937 nM. UCUCUUUGUAACGUGUCUCUU (ssRNA) [Ic_S1_P4E.1_K4.1_C4.1_H4.1_A4.1_[T5A]_[A6C]_[T7G]_F4.1_[A9G]_T4.1]: the Kd is 758 nM. The result for UCUCUUUGUAACUGUUCUCUU (ssRNA) [Ic_S1_P4E.1_K4.1_C4.1_H4.1_A4.1_[T5A]_[A6C]_F4.1_[T8G]_[A9T]_T4.1] reads 360 nM. Next, UCUCUUUGCAUAUGUCUCUU (ssRNA) [Ib_S1_P3E.1_K3.1_C3.1_H3.1_[T3C]_A3.1_F3.1_[A8G]_T3.1]: > 2300 nM. Next, UCUCUUUGUACAUAGUCUCUU (ssRNA) [Ic_S1_P4E.1_K4.1_C4.1_H4.1_A4.1_[T5C]_F4.1_[T8A]_[A9G]_T4.1]: 5.5 nM; UCUCUUUGUAACAUAUCUCUU (ssRNA) [Ic_S1_P4E.1_K4.1_C4.1_H4.1_A4.1_[T5A]_[A6C]_[T7A]_F4.1_T4.1]: 1.55 nM. UCUCUUUGUACAUGUUCUCUU (ssRNA) [Ic_S1_P4E.1_K4.1_C4.1_H4.1_A4.1_[T5C]_F4.1_[T8G]_[A9T]_T4.1] showed a Kd of 20.9 nM. The result for UCUCUUUGCAUAUCUCUCUU (ssRNA) [Ib_S1_P3E.1_K3.1_C3.1_H3.1_[T3C]_A3.1_F3.1_[A8C]_T3.1] reads > 2300 nM; that for UCUCUUUGUAACGUCUCUCUU (ssRNA) [Ic_S1_P4E.1_K4.1_C4.1_H4.1_A4.1_[T5A]_[A6C]_[T7G]_F4.1_[A9C]_T4.1], 789 nM; that for UCUCUUUGUAACCCUUCUCUU (ssRNA) [Ic_S1_P4E.1_K4.1_C4.1_H4.1_A4.1_[T5A]_[A6C]_[T7C]_F4.1_[T8C]_[A9T]_T4.1], 727 nM. The result for UCUCUUUGUACAUCUUCUCUU (ssRNA) [Ic_S1_P4E.1_K4.1_C4.1_H4.1_A4.1_[T5C]_F4.1_[T8C]_[A9T]_T4.1] reads 21.1 nM. The result for UCUCUUUGUAACGUAUCUCUU (ssRNA) [Ic_S1_P4E.1_K4.1_C4.1_H4.1_A4.1_[T5A]_[A6C]_[T7G]_F4.1_T4.1] reads 17.3 nM; that for UCUCUUUGUAACAAUUCUCUU (ssRNA) [Ic_S1_P4E.1_K4.1_C4.1_H4.1_A4.1_[T5A]_[A6C]_[T7A]_F4.1_[T8A]_[A9T]_T4.1], 102 nM. UCUCUUUGUAACACAUCUCUU (ssRNA) [Ic_S1_P4E.1_K4.1_C4.1_H4.1_A4.1_[T5A]_[A6C]_[T7A]_F4.1_[T8C]_T4.1] registered a Kd of 209 nM.

In the case of UCUCUUUAUAUAUUUCUCUU (ssRNA) [Ib_S1_P3E.1_K3.1_C3.1_H3.1_[G2A]_A3.1_F3.1_[A8T]_T3.1], binding was put at a Kd of 696 nM.

As for UCUCUUUGUAACGCUUCUCUU (ssRNA) [Ic_S1_P4E.1_K4.1_C4.1_H4.1_A4.1_[T5A]_[A6C]_[T7G]_F4.1_[T8C]_[A9T]_T4.1], binding was characterised by a dissociation constant (Kd) of 581 nM. The result for UCUCUUUGUACAAUGUCUCUU (ssRNA) [Ic_S1_P4E.1_K4.1_C4.1_H4.1_A4.1_[T5C]_[T7A]_F4.1_[A9G]_T4.1] reads 7.97 nM. The result for UCUCUUUGUACAAUCUCUCUU (ssRNA) [Ic_S1_P4E.1_K4.1_C4.1_H4.1_A4.1_[T5C]_[T7A]_F4.1_[A9C]_T4.1] reads 16.7 nM. Next, UCUCUUUGUAACCAGUCUCUU (ssRNA) [Ic_S1_P4E.1_K4.1_C4.1_H4.1_A4.1_[T5A]_[A6C]_[T7C]_F4.1_[T8A]_[A9G]_T4.1]: > 2300 nM; UCUCUUUGUAACGCGUCUCUU (ssRNA) [Ic_S1_P4E.1_K4.1_C4.1_H4.1_A4.1_[T5A]_[A6C]_[T7G]_F4.1_[T8C]_[A9G]_T4.1]: > 2300 nM; UCUCUUUGUAACCUGUCUCUU (ssRNA) [Ic_S1_P4E.1_K4.1_C4.1_H4.1_A4.1_[T5A]_[A6C]_[T7C]_F4.1_[A9G]_T4.1]: 61 nM. UCUCUUUGUGUAUGUCUCUU (ssRNA) [Ib_S1_P3E.1_K3.1_C3.1_H3.1_[A4G]_A3.1_F3.1_[A8G]_T3.1]: the Kd is 494 nM.

Molecule UCUCUUUGUACAAACUCUCUU (ssRNA) [Ic_S1_P4E.1_K4.1_C4.1_H4.1_A4.1_[T5C]_[T7A]_F4.1_[T8A]_[A9C]_T4.1] yielded a Kd of 142 nM.
